Measured values published in publication PMC4949388 (Brain, 2015).

B1: highly purified BuChE from human serum (enzyme)
chain: EDDIIIATKNGKVRGMNLTVFGGTVTAFLGIPYAQPPLGRLRFKKPQSLTKWSDIWNATKYANSCCQNIDQSFPGFHGSEMWNPNTDLSEDCLYLNVWIPAPKPKNATVLIWIYGGGFQTGTSSLHVYDGKFLARVERVIVVSMNYRVGALGFLALPGNPEAPGNMGLFDQQLALQWVQKNIAAFGGNPKSVTLFGESAGAASVSLHLLSPGSHSLFTRAILQSGSFNAPWAVTSLYEARNRTLNLAKLTGCSRENETEIIKCLRNKDPQEILLNEAFVVPYGTPLSVNFGPTVDGDFLTDMPDILLELGQFKKTQILVGVNKDEGTAFLVYGAPGFSKDNNSIITRKEFQEGLKIFFPGVSEFGKESILFHYTDWVDDQRPENYREALGDVVGDYNFICPALEFTKKFSEWGNNAFFYYFEHRSSKLPWPEWMGVMHGYEIEFVFGLPLERRDNYTKAEEILSRSIVKRWANFAKYGNPNETQNNSTSWPVFKSTEQKYLTLNTESTRIMTKLRAQQCRFWTSFFPKVLEMTGNIDEAEWEWKAGFHRWNNYMMDWKNQFNDYTSKKESCVGL

Key:
[1] = biological target: CSF BuChE (human (endogenous in CSF)) (UniProt P06276); assay: co-sedimentation
co-sedimentation = biological target: the molecule itself; assay: co-sedimentation

Row | Molecule | stoichiometry N [1] | stoichiometry N (co-sedimentation)
1 | CSF BuChE (from UniProt P06276 29-602) (enzyme) | 4 | 
2 | B1 |  | 4
